Experimental data reported in US20260184766A1.

Key:
[1] = molecular target: T1, SARS CoV-2 spike trimer protein from the parental Wuhan-Hu-1 isolate (recombinant stabilized extracellular domain) (SARS-CoV-2 (Wuhan-Hu-1)); experiment: ELISA, spike coated, chimeric IgG1; settings: remark: other sources report otherwise
[2] = molecular target: T1, SARS CoV-2 spike trimer protein from …; experiment: ELISA on coated recombinant stabilized spike protein, panel WT, OD 450; settings: remark: other sources report otherwise
[3] = molecular target: T1, SARS CoV-2 spike trimer protein from …; experiment: ELISA on coated spike protein, anti-human Fc-HRP, OD450; settings: remark: other sources report otherwise
[4] = molecular target: SARS-CoV-2 (antigen of the ELISA of FIG. 5E); experiment: ELISA on SARS-CoV-2 antigen (spike or RBD not stated), OD 450

Binder | EC50 [1] [nM] | EC50 (read off the curve) [2] [nM] | EC50 (read off the curve) [3] [nM] | EC50 (read off the curve) [4] [nM]
SKM chimeric bovine-human IgG1 (ultralong CDR3) (antibody) VH: QVQLRESGPSLVKPSQTLSLTCTASGFSLSDKAVGWVRQAPGKALEWLGSIDTGGNTGYNPGLKSRLSITKDNSKSQVSLSVSSVTTEDSATYYCTTVHQETLRSCPDGYIDNSGCTADWGCAALDCWRRRFGYHSTDPSHYTGATYIYTYSLHIDAWGQGLLVTVSS VL: QAVLNQPSSVSGSLGQRVSITCSGSSSNVGNGYVSWYQLIPGSAPRTLIYGDTSRASGVPDRFSGSRSGNTATLTISSLQAEDEADYFCASAEDSSSNAVFGSGTTLTVL | 0.19 | 0.2 | – | –
R4C1 chimeric bovine-human IgG1 (ultralong CDR3) (antibody) VH: QVQLRESGPSLVKPSQTLSLTCTASGFSLSDKAVGWVRQAPGKPLEWLGSIDTAENTGYNPGLKSRLSITKDNSKSQVSLSVSSVTTEDSATYYCATVHQKTRKEKNCPDGYIYSSNTASGYDCGVWICRRVGSAFCSRTGDYTSPSEFDIYEFYVEGWGQGLLVTVSS VL: QAVLNQPSSVSGSLGQRVSITCSGSSSNVGNGYVSWYQLIPGSAPRTLIYGDTSRASGVPDRFSGSRSGNTATLTISSLQAEDEADYFCASAEDSSSNAVFGSGTTLTVL | 0.2 | 0.3 | 0.03 | –
SKD chimeric bovine-human IgG1 (ultralong CDR3) (antibody) VH: QVQLRESGPSLVKPSQTLSLTCTASGFSLSDKAVGWVRQAPGKALEWLGSIDTGGNTGYNPGLKSRLSITKDNSKSQVSLSVSSVTTEDSATYYCTTVHQRTSEKRSCPGGSSRRYPSGASCDVSGGACACYVSNCRGVLCPTLNEIVAYTYEWHVDAWGQGLLVTVSS VL: QAVLNQPSSVSGSLGQRVSITCSGSSSNVGNGYVSWYQLIPGSAPRTLIYGDTSRASGVPDRFSGSRSGNTATLTISSLQAEDEADYFCASAEDSSSNAVFGSGTTLTVL | 0.16 | – | – | –
R2D9 chimeric bovine-human IgG1 (ultralong CDR3) (antibody) VH: QVQLRESGPSLVKPSQTLSLTCTASGFSLSDKAIGWVRQAPGKALEWLGSIDTRGNTGYNPGLKSRLSITKDSSKSQVSLSVNSVTTEDSATYLCAIVQQITHKTCPNGYNWFDRCCSWDGTCGDGCCSNRAWPSGNGRADSSIGETYGYEFHVAAWGQGLLVTVSS VL: QAVLNQPSSVSGSLGQRVSITCSGSSSNVGNGYVSWYQLIPGSAPRTLIYGDTSRASGVPDRFSGSRSGNTATLTISSLQAEDEADYFCASAEDSSSNAVFGSGTTLTVL | – | – | – | 0.03
